Laboratory results from US20240216513A1, “FATTY ACID-BIFUNCTIONAL DEGRADER CONJUGATES AND THEIR METHODS OF USE” (Novartis AG, priority 2021, published 2024).

Legend:
[1] = BTK FAC plasma stability assay, PBS buffer arm; type: physicochemical; settings: for Plasma stability (h) PBS: incubation to 24 h
Description: (§1) Plasma stability was conducted in Dulbecco's PBS buffer, mouse plasma, rat plasma or human plasma frozen with K3-EDTA from BiolVT). Thawed plasma was centrifuged prior to warming for 5 minutes at 37° C. Working solutions were prepared from 10 mM DMSO solution to 500 µM in acetonitrile:water (1:1); 2 µL of working solution was added to 198 µL blank plasma or PBS and mixed manually. 4×45 µL of spiked matrix was aliquoted into glass incubation plates (96-well DW glass microplate) and sealed with blue silicon/PTFE seal; then incubated on a Thermo shaker (38° C. 300 RPM). Samples were prepared at 0, 2, 6 and 24 h timepoints, by protein precipitation with chilled acetonitrile containing internal standard Glyburide (0.2 µM). Precipitated samples were shaken for 10 minutes and stored at 4° C. until completion of the study. Following precipitation of the terminal sample, samples were frozen at −80° C. for 1 hour. Samples were then thawed prior to centrifugation (20 minutes, 4500 RPM at 4° C.). 50 µL of supernatant of each sample was transferred to 384 well analysis plate containing 30 µL of water. Semi quantitative analysis (analyte: internal standard peak area ratio) was performed by LC-MS/MS using a Sciex QTrap 5500.

[2] = BTK FAC plasma stability assay, mouse plasma; type: in vitro ADME
Description: as §1

[3] = BTK FAC plasma stability assay, rat plasma; type: in vitro ADME
Description: as §1

[4] = BTK FAC plasma stability assay, dog plasma; type: in vitro ADME

| Structure (SMILES) | % Release of degrader after 24 h PBS [1] [%] | Plasma stability (h) PBS [1] [h] | % Release of degrader after 24 h mouse [2] [%] | Plasma stability (h) mouse ([2]; incubation to 24 h) [h] | % Release of degrader after 24 h rat [3] [%] | Plasma stability (h) rat ([3]; incubation to 24 h) [h] | Plasma stability (h) dog [4] [h] | % Release of degrader after 24 h dog [4] [%] | half-life at 5 µM ([2]; incubation to 24 h) [h] | half-life at 5 µM ([3]; incubation to 24 h) [h] | half-life at 5 µM ([4]; read-out: Plasma stability (h) dog (converted)) [h] |
| --- | --- | --- | --- | --- | --- | --- | --- | --- | --- | --- | --- |
| CCCCCCCCCCCN(C(=O)CCCCCCCCCC(=O)O)C(CCC(=O)NCCOCCOCCOCCOCCOCCOCCOCCOCCC(=O)NCC(=O)OC(C)(C)c1ccc(C(=O)Nc2cc(F)cc(-c3ncnc4[nH]c(-c5ccc(CCN6CCC7(CC6)CCN(C(=O)c6ccc(OC)c(N8CCC(=O)NC8=O)c6)CC7)cc5)cc34)c2C)c(F)c1)C(=O)O (centres unmarked) [Example A8, 38-Carboxy-2-(4-((3-(6-(4-(2-(9-(3-(2,4-dioxotetrahydropyrimidin-(2H)-yl)-4-methoxybenzoyl)-3,9-diazaspiro[5.5]undecan-3-yl)ethyl)phenyl)-7H-pyrrolo[2,3-d]pyrimidin-4-yl)-5-fluoro-2-methylphenyl)carbamoyl)-3-fluorophenyl)-2-methyl-4,7,35,40-tetraoxo-39-undecyl-3,10,13,16,19,22,25,28,31-nonaoxa-6,34,39-triazapentacontan-50-oic acid] | 2.8 | >48 | 20.1 | >48 | 18.1 | >48 | >48 | 13.1 |  |  |  |
| CCCCCCCCCCCN(C(=O)CCCCCCCCCC(=O)O)C(CCC(=O)NCCOCCOCCOCCOCCOCCOCCOCCOCCOCCOCCOCCOCCC(=O)NCCOP(=O)(O)OC(C)(C)c1ccc(C(=O)Nc2cc(F)cc(-c3ncnc4[nH]c(-c5ccc(CCN6CCC7(CC6)CCN(C(=O)c6ccc(OC)c(N8CCC(=O)NC8=O)c6)CC7)cc5)cc34)c2C)c(F)c1)C(=O)O (centres unmarked) [Example A39, 47-Carboxy-1-((((2-(4-((3-(6-(4-(2-(9-(3-(2,4-dioxotetrahydropyrimidin-1(2H)-yl)-4-methoxybenzoyl)-3,9-diazaspiro[5.5]undecan-3-yl)ethyl)phenyl)-7H-pyrrolo[2,3-d]pyrimidin-4-yl)-5-fluoro-2-methylphenyl)carbamoyl)-3-fluorophenyl)propan-2-yl)oxy)(hydroxy)phosphoryl)oxy)-4,44,49-trioxo-48-undecyl-7,10,13,16,19,22,25,28,31,34,37,40-dodecaoxa-3,43,48-triazanonapentacontan-59-oic acid] | 0 | >48 | 0 | >48 | 0 | >48 | 39.0 | 0 |  |  |  |
| CCCCCCCCCCCN(C(=O)CCCCCCCCCC(=O)O)[C@@H](CCC(=O)NCC(=O)OC(C)(C)c1ccc(C(=O)Nc2cc(F)cc(-c3ncnc4[nH]c(-c5ccc(CCN6CCC7(CC6)CCN(C(=O)c6ccc(OC)c(N8CCC(=O)NC8=O)c6)CC7)cc5)cc34)c2C)c(F)c1)C(=O)O [Example A6, (S)-11-((1-Carboxy-4-((2-((2-(4-((3-(6-(4-(2-(9-(3-(2,4-dioxotetrahydropyrimidin-1(2H)-yl)-4-methoxybenzoyl)-3,9-diazaspiro[5.5]undecan-3-yl)ethyl)phenyl)-7H-pyrrolo[2,3-d]pyrimidin-4-yl)-5-fluoro-2-methylphenyl)carbamoyl)-3-fluorophenyl)propan-2-yl)oxy)-2-oxoethyl)amino)-4-oxobutyl)(undecyl)amino)-11-oxoundecanoic acid] | 0.4 | >48 | 37.4 |  | 21.1 |  |  | 4.6 | 10.7 | 36.6 | 12.7 |
| CCCCCCCCCCCN(C(=O)CCCCCCCCCC(=O)O)C(CCC(=O)NCCOCCOCCOCCOCCOCCOCCOCCOCCOCCOCCOCCOCCC(=O)N1CCC(F)(C(=O)OC(C)(C)c2ccc(C(=O)Nc3cc(F)cc(-c4ncnc5[nH]c(-c6ccc(CCN7CCC8(CC7)CCN(C(=O)c7ccc(OC)c(N9CCC(=O)NC9=O)c7)CC8)cc6)cc45)c3C)c(F)c2)CC1)C(=O)O (centres unmarked) [Example A15, 44-Carboxy-1-(4-(((2-(4-((3-(6-(4-(2-(9-(3-(2,4-dioxotetrahydropyrimidin-1(2H)-yl)-4-methoxybenzoyl)-3,9-diazaspiro[5.5]undecan-3-yl)ethyl)phenyl)-7H-pyrrolo[2,3-d]pyrimidin-4-yl)-5-fluoro-2-methylphenyl)carbamoyl)-3-fluorophenyl)propan-2-yl)oxy)carbonyl)-4-fluoropiperidin-1-yl)-1,41,46-trioxo-45-undecyl-4,7,10,13,16,19,22,25,28,31,34,37-dodecaoxa-40,45-diazahexapentacontan-56-oic acid] | 0 | >48 | 96.9 | <2 | 39.4 | 30 | 23 | 22.5 |  |  |  |
| CCCCCCCCCCCN(C(=O)CCCCCCCCCC(=O)O)C(CCC(=O)NCCOCCOCCOCCOCCC(=O)NCC(=O)O[C@H]1CN(C(=O)Nc2cc(F)cc(-c3ncnc4[nH]c(-c5ccc(CCN6CCC7(CC6)CCN(C(=O)c6ccc(OC)c(N8CCC(=O)NC8=O)c6)CC7)cc5)cc34)c2C)C[C@@H]1CC(C)C)C(=O)O (stereo partly drawn) [Example A30, 23-Carboxy-1-(((3R,4S)-1-((3-(6-(4-(2-(9-(3-(2,4-dioxotetrahydropyrimidin-1(2H)-yl)-4-methoxybenzoyl)-3,9-diazaspiro[5.5]undecan-3-yl)ethyl)phenyl)-7H-pyrrolo[2,3-d]pyrimidin-4-yl)-5-fluoro-2-methylphenyl)carbamoyl)-4-isobutylpyrrolidin-3-yl)oxy)-1,4,20,25-tetraoxo-24-undecyl-7,10,13,16-tetraoxa-3,19,24-triazapentatriacontan-35-oic acid] |  | >72 |  | <1 |  |  |  |  |  |  |  |
| CCCCCCCCCCCN(C(=O)CCCCCCCCCC(=O)O)C(CCC(=O)NCCOCCOCCOCCOCCC(=O)NCC(=O)OC(C)(C)c1ccc(C(=O)Nc2cc(F)cc(-c3ncnc4[nH]c(-c5ccc(CCN6CCC7(CC6)CCN(C(=O)c6ccc(OC)c(N8CCC(=O)NC8=O)c6)CC7)cc5)cc34)c2C)c(F)c1)C(=O)O (centres unmarked) [Example A7, 26-Carboxy-2-(4-((3-(6-(4-(2-(9-(3-(2,4-dioxotetrahydropyrimidin-(2H)-yl)-4-methoxybenzoyl)-3,9-diazaspiro[5.5]undecan-3-yl)ethyl)phenyl)-7H-pyrrolo[2,3-d]pyrimidin-4-yl)-5-fluoro-2-methylphenyl)carbamoyl)-3-fluorophenyl)-2-methyl-4,7,23,28-tetraoxo-27-undecyl-3,10,13,16,19-pentaoxa-6,22,27-triazaoctatriacontan-38-oicacid] | 1.5 | >48 | 53.6 | 10.1 |  |  |  |  |  |  |  |
